Source: the supplement of paper PMC10567573

B1: BCL2L13 (parent)
chain: MASSSTVPLGFHYETKYVVLSYLG
B2: TRIB1 (parent)
chain: EIGTSDQIVPEYQEDSDISSFFC

Variants of: B1
Experiment: protein stability index of a GFP-peptide fusion (GPS, HEK-293T) (PSI 1-6); higher = more stable
Details: c terminus: a fixed tail appended
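Note: lentivirally expressed fusions sorted by FACS into six bins by GFP to DsRed ratio, PSI derived from sequencing read proportions per bin multiplied by bin number.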

Point of comparison: MASSSTVPLGFGYETKYVVLSYLG, protein stability index 2.11. Against it:
- MASSRTVPLGFHYETKYVVLSYLG — higher, 2.4
- MASSFTVPLGFHYETKYVVLSYLG — higher, 2.55
- MASSSTVPLGFHYMTKYVVLSYLG — higher, 3.1
- MASSSTVPLGFHYDTKYVVLSYLG — higher, 2.67
- MASSSTVPLGFHYETWYVVLSYLG — higher, 2.56
- MASSSCVPLGFHYETKYVVLSYLG — lower, 1.67
- MASSSSVPLGFHYETKYVVLSYLG — higher, 2.95
- MASSSKVPLGFHYETKYVVLSYLG — higher, 2.59
- MASSSTVPLGFHYETKYVVLWYLG — higher, 3.36
- MASSSTVPLGFHYETKYVVLSMLG — higher, 2.7
- MASSSTVPLGDHYETKYVVLSYLG — lower, 2.03
- MASSSTVPLGFHYETKCVVLSYLG — higher, 2.48
- MASSSTVPLGFHYETKYVVLSYNG — higher, 2.18
- MASSSTVPLGFHYETKYVVLSYDG — lower, 1.63
- MASSSTVPLGFHIETKYVVLSYLG — higher, 2.65
- MASSSTVPLGFHAETKYVVLSYLG — higher, 2.82
- MASSSTVPLGFHYENKYVVLSYLG — lower, 1.75
- MASSSTVPLGFHYEGKYVVLSYLG — lower, 1.34
- MASSSTVPLGFHYETKYVGLSYLG — lower, 2.09
- MASSSTVPLGFHYETKYVDLSYLG — lower, 1.45
- MASSSTVPLGFHYETKYVSLSYLG — higher, 2.19
- MASSSTVPLGFHYETKYDVLSYLG — lower, 1.89
- MASSSTVPLGFHYETKYQVLSYLG — lower, 1.37
- MHSSSTVPLGFHYETKYVVLSYLG — higher, 2.74
- MTSSSTVPLGFHYETKYVVLSYLG — higher, 3.3

Variants of: B2
Experiment: as above
Details: c terminus: native

Point of comparison: EIGTSDRIVPEYQEDSDISSFFC, protein stability index 5.27. Against it:
- EIGTSDQAVPEYQEDSDISSFFC — lower, 4.82
- EIGTSDQTVPEYQEDSDISSFFC — lower, 4.29
- EIGTSDQYVPEYQEDSDISSFFC — lower, 5.08
- EIGTSDQVVPEYQEDSDISSFFC — lower, 2.07
- EIGTSDQSVPEYQEDSDISSFFC — lower, 5.18
- EIGTSDQMVPEYQEDSDISSFFC — lower, 3.54
- EIGTSDQWVPEYQEDSDISSFFC — lower, 4.69
- EIGTSDQEVPEYQEDSDISSFFC — lower, 4.19
- EIGTSDQFVPEYQEDSDISSFFC — lower, 5.17
- EIGTSDQLVPEYQEDSDISSFFC — lower, 4.11
- EIGTSDQQVPEYQEDSDISSFFC — lower, 3.93
- EIGTSDQCVPEYQEDSDISSFFC — lower, 3.62
- EIGTSDQKVPEYQEDSDISSFFC — lower, 4.03
- EIGTSDQPVPEYQEDSDISSFFC — higher, 5.36
- EIGTSDQNVPEYQEDSDISSFFC — higher, 5.32
- EIGTSDQHVPEYQEDSDISSFFC — lower, 5.15
- EIGTSDQDVPEYQEDSDISSFFC — lower, 5.12
- EIGTSDQGVPEYQEDSDISSFFC — lower, 4.66
- EIGTSDQRVPEYQEDSDISSFFC — lower, 3.56
- EIGTLDQIVPEYQEDSDISSFFC — lower, 2.95
- EIGTFDQIVPEYQEDSDISSFFC — lower, 2.31
- EIGTGDQIVPEYQEDSDISSFFC — lower, 3.2
- EIGTPDQIVPEYQEDSDISSFFC — lower, 3.07
- EIGTTDQIVPEYQEDSDISSFFC — lower, 2.2
- EIGTADQIVPEYQEDSDISSFFC — lower, 2.81
- EIGTIDQIVPEYQEDSDISSFFC — lower, 2.95
- EIGTKDQIVPEYQEDSDISSFFC — lower, 3.47
- EIGTEDQIVPEYQEDSDISSFFC — lower, 2.77
- EIGTQDQIVPEYQEDSDISSFFC — lower, 2.42
- EIGTVDQIVPEYQEDSDISSFFC — lower, 3.15
- EIGTCDQIVPEYQEDSDISSFFC — lower, 2.72
- EIGTNDQIVPEYQEDSDISSFFC — lower, 2.9
- EIGTMDQIVPEYQEDSDISSFFC — lower, 2.56
- EIGTHDQIVPEYQEDSDISSFFC — lower, 3.06
- EIGTDDQIVPEYQEDSDISSFFC — lower, 2.97
- EIGTWDQIVPEYQEDSDISSFFC — lower, 3.02
- EIGTRDQIVPEYQEDSDISSFFC — lower, 2.77
- EIGTYDQIVPEYQEDSDISSFFC — lower, 1.73
- EIGYSDQIVPEYQEDSDISSFFC — lower, 3.1
- EIGLSDQIVPEYQEDSDISSFFC — lower, 2.77
- EIGISDQIVPEYQEDSDISSFFC — lower, 2.62
- EIGPSDQIVPEYQEDSDISSFFC — lower, 3.22
- EIGFSDQIVPEYQEDSDISSFFC — lower, 3.18
- EIGASDQIVPEYQEDSDISSFFC — lower, 3.23
- EIGCSDQIVPEYQEDSDISSFFC — lower, 2.33
- EIGMSDQIVPEYQEDSDISSFFC — lower, 2.67
- EIGDSDQIVPEYQEDSDISSFFC — lower, 2.32
- EIGHSDQIVPEYQEDSDISSFFC — lower, 2.55
- EIGSSDQIVPEYQEDSDISSFFC — lower, 2.87
- EIGESDQIVPEYQEDSDISSFFC — lower, 2.86
- EIGKSDQIVPEYQEDSDISSFFC — lower, 3.25
- EIGRSDQIVPEYQEDSDISSFFC — lower, 2.88
- EIGQSDQIVPEYQEDSDISSFFC — lower, 2.25
- EIGGSDQIVPEYQEDSDISSFFC — lower, 3.12
- EIGWSDQIVPEYQEDSDISSFFC — lower, 2.73
- EIGNSDQIVPEYQEDSDISSFFC — lower, 2.39
- EIGVSDQIVPEYQEDSDISSFFC — lower, 2.67
- EIYTSDQIVPEYQEDSDISSFFC — lower, 2.38
- EIWTSDQIVPEYQEDSDISSFFC — lower, 2.18
- EIQTSDQIVPEYQEDSDISSFFC — lower, 2.7
- EISTSDQIVPEYQEDSDISSFFC — lower, 2.57
- EIPTSDQIVPEYQEDSDISSFFC — lower, 2.97
- EIMTSDQIVPEYQEDSDISSFFC — lower, 2.83
- EIKTSDQIVPEYQEDSDISSFFC — lower, 2.65
- EIATSDQIVPEYQEDSDISSFFC — lower, 2.64
- EIHTSDQIVPEYQEDSDISSFFC — lower, 2.63
- EICTSDQIVPEYQEDSDISSFFC — lower, 2.38
- EIDTSDQIVPEYQEDSDISSFFC — lower, 2.55
- EINTSDQIVPEYQEDSDISSFFC — lower, 2.81
- EIETSDQIVPEYQEDSDISSFFC — lower, 2.97
- EIVTSDQIVPEYQEDSDISSFFC — lower, 2.78
- EILTSDQIVPEYQEDSDISSFFC — lower, 2.29
- EIFTSDQIVPEYQEDSDISSFFC — lower, 2.32
- EITTSDQIVPEYQEDSDISSFFC — lower, 3.01
- EIITSDQIVPEYQEDSDISSFFC — lower, 2.42
- EIRTSDQIVPEYQEDSDISSFFC — lower, 2.31
- ELGTSDQIVPEYQEDSDISSFFC — lower, 3.06
- EQGTSDQIVPEYQEDSDISSFFC — lower, 2.73
- EEGTSDQIVPEYQEDSDISSFFC — lower, 3.64
- EPGTSDQIVPEYQEDSDISSFFC — lower, 4.12
- EYGTSDQIVPEYQEDSDISSFFC — lower, 2.81
- EFGTSDQIVPEYQEDSDISSFFC — lower, 2.59
- ERGTSDQIVPEYQEDSDISSFFC — lower, 2.59
- EHGTSDQIVPEYQEDSDISSFFC — lower, 3.45
- EKGTSDQIVPEYQEDSDISSFFC — lower, 2.9
- EMGTSDQIVPEYQEDSDISSFFC — lower, 3.15
- ENGTSDQIVPEYQEDSDISSFFC — lower, 2.74
- ESGTSDQIVPEYQEDSDISSFFC — lower, 2.94
- ECGTSDQIVPEYQEDSDISSFFC — lower, 2.57
- EGGTSDQIVPEYQEDSDISSFFC — lower, 3.58
- ETGTSDQIVPEYQEDSDISSFFC — lower, 2.75
- EVGTSDQIVPEYQEDSDISSFFC — lower, 3.35
- EWGTSDQIVPEYQEDSDISSFFC — lower, 2.06
- EAGTSDQIVPEYQEDSDISSFFC — lower, 2.86
- EDGTSDQIVPEYQEDSDISSFFC — lower, 4.01
- EIGTSDQIGPEYQEDSDISSFFC — higher, 5.29
- EIGTSDQIAPEYQEDSDISSFFC — lower, 5.16
- EIGTSDQIDPEYQEDSDISSFFC — higher, 5.51
- EIGTSDQIFPEYQEDSDISSFFC — lower, 4.94
- EIGTSDQIRPEYQEDSDISSFFC — lower, 4.88
- EIGTSDQIIPEYQEDSDISSFFC — lower, 4.93
- EIGTSDQICPEYQEDSDISSFFC — higher, 5.31
- EIGTSDQIHPEYQEDSDISSFFC — higher, 5.32
- EIGTSDQIKPEYQEDSDISSFFC — higher, 5.49
- EIGTSDQIQPEYQEDSDISSFFC — higher, 5.78
- EIGTSDQIMPEYQEDSDISSFFC — lower, 5.12
- EIGTSDQILPEYQEDSDISSFFC — lower, 4.95
- EIGTSDQIPPEYQEDSDISSFFC — higher, 5.38
- EIGTSDQINPEYQEDSDISSFFC — higher, 5.57
- EIGTSDQIEPEYQEDSDISSFFC — higher, 5.74
- EIGTSDPIVPEYQEDSDISSFFC — higher, 5.3
- EIGTSDAIVPEYQEDSDISSFFC — lower, 5.23
- EIGTSDLIVPEYQEDSDISSFFC — lower, 4.94
- EIGTSDNIVPEYQEDSDISSFFC — lower, 4.88
- EIGTSDHIVPEYQEDSDISSFFC — lower, 5
- EIGTSDCIVPEYQEDSDISSFFC — lower, 5.1
- EIGTSDGIVPEYQEDSDISSFFC — higher, 5.28
- EIGTSDDIVPEYQEDSDISSFFC — higher, 5.53
- EIGTSDEIVPEYQEDSDISSFFC — higher, 5.58
- EIGTSDSIVPEYQEDSDISSFFC — lower, 5.2
- EIGTSDIIVPEYQEDSDISSFFC — lower, 4.95
- EIGTSDWIVPEYQEDSDISSFFC — lower, 4
- EIGTSDFIVPEYQEDSDISSFFC — lower, 3.76
- EIGTSDYIVPEYQEDSDISSFFC — lower, 4.43
- EIGTSDTIVPEYQEDSDISSFFC — higher, 5.64
- EIGTSDMIVPEYQEDSDISSFFC — lower, 4.79
- EIGTSDKIVPEYQEDSDISSFFC — lower, 5.04
- EIGTSDVIVPEYQEDSDISSFFC — lower, 5.02
- EIGTSIQIVPEYQEDSDISSFFC — lower, 4.07
- EIGTSKQIVPEYQEDSDISSFFC — lower, 5.18
- EIGTSLQIVPEYQEDSDISSFFC — lower, 4.45
- EIGTSMQIVPEYQEDSDISSFFC — lower, 4.3
- EIGTSWQIVPEYQEDSDISSFFC — lower, 4.11
- EIGTSRQIVPEYQEDSDISSFFC — lower, 5.04
- EIGTSHQIVPEYQEDSDISSFFC — lower, 4.9
- EIGTSSQIVPEYQEDSDISSFFC — higher, 5.45
- EIGTSYQIVPEYQEDSDISSFFC — lower, 4.65
- EIGTSTQIVPEYQEDSDISSFFC — lower, 5.07
- EIGTSPQIVPEYQEDSDISSFFC — lower, 4.84
- EIGTSQQIVPEYQEDSDISSFFC — lower, 5.04
- EIGTSEQIVPEYQEDSDISSFFC — lower, 4.77
- EIGTSCQIVPEYQEDSDISSFFC — lower, 4.7
- EIGTSAQIVPEYQEDSDISSFFC — lower, 4.92
- EIGTSGQIVPEYQEDSDISSFFC — higher, 5.55
- EIGTSNQIVPEYQEDSDISSFFC — lower, 4.69
- EIGTSVQIVPEYQEDSDISSFFC — lower, 4.57
- EIGTSFQIVPEYQEDSDISSFFC — lower, 4.14
- HIGTSDQIVPEYQEDSDISSFFC — lower, 1.97
- FIGTSDQIVPEYQEDSDISSFFC — lower, 2.15
- NIGTSDQIVPEYQEDSDISSFFC — lower, 2.32
- LIGTSDQIVPEYQEDSDISSFFC — lower, 2.21
- VIGTSDQIVPEYQEDSDISSFFC — lower, 2.74
- RIGTSDQIVPEYQEDSDISSFFC — lower, 2.77
- KIGTSDQIVPEYQEDSDISSFFC — lower, 1.98
- TIGTSDQIVPEYQEDSDISSFFC — lower, 2.97
- WIGTSDQIVPEYQEDSDISSFFC — lower, 2.46
- MIGTSDQIVPEYQEDSDISSFFC — lower, 2.41
- QIGTSDQIVPEYQEDSDISSFFC — lower, 2.57
- DIGTSDQIVPEYQEDSDISSFFC — lower, 2.57
- SIGTSDQIVPEYQEDSDISSFFC — lower, 2.42
- YIGTSDQIVPEYQEDSDISSFFC — lower, 2.11
- IIGTSDQIVPEYQEDSDISSFFC — lower, 1.9
- GIGTSDQIVPEYQEDSDISSFFC — lower, 2.58
- AIGTSDQIVPEYQEDSDISSFFC — lower, 2.7
- CIGTSDQIVPEYQEDSDISSFFC — lower, 2.38
- PIGTSDQIVPEYQEDSDISSFFC — lower, 3.11
